In PMC8627827 (Biomacromolecules, 2021):

Assay: Subcutaneous pharmacokinetics in streptozotocin-induced diabetic rats
Set-up: species or system Male Sprague Dawley rats
Conditions: rat, in vivo, sc, 10 U/kg

For “insulin-PEG20k: insulin covalently modified with 20 kDa mPEG via insulin-BCN, long-acting control”, which “Time to peak (serum insulin)” value is on record?
The value was 7 ± 1 h.
